Consider one molecule from publication PMC12802937 (Nucleic Acids Research, 2026).

Common to all, as to assay: ITC; Lge1-CT (50–60 μM) injected into Bre1-LR (15 μM); 25°C, 20 mM TRIS (pH 7.5), 200 mM sodium chloride
Common to all, as to details: both partners purified
(In general: Isothermal titration calorimetry measures the heat released or taken up as one component is titrated into another.)

Assay [1] has as its target T1, Bre1-LR K379A (budding yeast, UniProt Q07457 227-700, K379A).
T1 construct: source: E. coli BL21 Rosetta (DE3), purified (Ni-NTA, heparin, gel filtration)
T1 sequence (looked up): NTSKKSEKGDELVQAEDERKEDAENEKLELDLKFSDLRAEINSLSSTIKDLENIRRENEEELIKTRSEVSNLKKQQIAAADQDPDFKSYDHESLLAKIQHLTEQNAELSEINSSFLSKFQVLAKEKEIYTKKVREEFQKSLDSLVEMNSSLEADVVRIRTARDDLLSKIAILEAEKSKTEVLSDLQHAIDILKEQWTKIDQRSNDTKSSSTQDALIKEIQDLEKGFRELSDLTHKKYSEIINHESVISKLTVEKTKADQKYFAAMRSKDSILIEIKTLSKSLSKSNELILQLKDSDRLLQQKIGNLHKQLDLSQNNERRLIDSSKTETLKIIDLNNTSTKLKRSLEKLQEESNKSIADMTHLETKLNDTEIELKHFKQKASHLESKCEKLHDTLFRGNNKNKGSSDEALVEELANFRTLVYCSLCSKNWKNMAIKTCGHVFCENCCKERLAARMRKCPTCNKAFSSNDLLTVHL

For assay [2], the target named is T2, Bre1-LR K352E (budding yeast, UniProt Q07457 227-700, K352E).
T2 construct: source: E. coli BL21 Rosetta (DE3), purified (Ni-NTA, heparin, gel filtration)
T2 sequence (looked up): T1 sequence (looked up) with K126E, A153K

The target of assay [3] is T3, Bre1-LR E378K/E500K (budding yeast, UniProt Q07457 227-700, E378K | E500K).
T3 construct: source: E. coli BL21 Rosetta (DE3), purified (Ni-NTA, heparin, gel filtration)
T3 sequence (looked up): T1 sequence (looked up) with E152K, A153K, E274K

Assay [4] concerns the target T4, Bre1-LR K379E (budding yeast, UniProt Q07457 227-700, K379E).
T4 construct: source: E. coli BL21 Rosetta (DE3), purified (Ni-NTA, heparin, gel filtration)
T4 sequence (looked up): T1 sequence (looked up) with A153E

Numbering of substitutions follows the chain as printed.

B1: Lge1-CT (Lge1 residues 261–332), intein-chitin binding domain (CBD) tag construct (domain or fragment, budding yeast, UniProt Q02796 261-332, looked up)
chain: KNVKKTNNTESECEKAREVFKESDSIDSALEELNLKINSNELELRLLNNQCDKHALNIQLTQEKLDSLLLMQ
notes: Lge1, budding yeast, residues 261-332; residues 268–331 resolved in the electron density; the intein-CBD tag is named on the protein in the pull-down; also called intein-CBD-fused Lge1-CT; intein-CBD-tagged Lge1-CT; source: E. coli BL21 Rosetta (DE3): cleared cell extract on chitin resin (pull-down); purified (chitin, heparin, gel filtration) for ITC and SPR; co-purified with Bre1-LR for the …
As to B1, the dissociation constant Kd (as a rule, the concentration at which binding is half-saturated) in assay [1] is 82.3 ± 20 nM; in assay [2], 176 ± 45 nM; in assay [3] it was 98 ± 31.2 nM; in assay [4] it was 58.1 ± 19 nM. Moreover, the dH is -44.1 ± 1.8 kcal/mol in assay [1], -22.9 ± 1.3 kcal/mol in assay [2], -40.7 ± 1.9 kcal/mol in assay [3] and -37.7 ± 1.6 kcal/mol in assay [4]. Further, the stoichiometry N (in general, the number of molecules, sites or subunits per partner or assembly) in assay [1] came out at 0.415 ± 0.007; in assay [2], 0.432 ± 0.011; in assay [3] it was 0.256 ± 0.007; in assay [4], 0.428 ± 0.008.
